Laboratory results as given in patent publication US20230313187A1, “MODIFICATIONS OF MAMMALIAN CELLS USING ARTIFICIAL MICRO-RNA TO ALTER THEIR PROPERTIES AND THE COMPOSITIONS OF THEIR PRODUCTS” (DNA TWOPOINTO INC., priority 2020, published 2023).
Several values for one entry are separate records, joined by “and”; a condition that tells them apart may be missing. Equal values may be shown once.

Legend:
[1] = test system: Cricetulus griseus GDP-Mannose 4,6-dehydratase (GMD), and GDP-fucose transporter 1 (GFT) mRNA; assay: Inhibition of antibody fucosylation in CHO with amiRNA targeting GMD and GFT; type: cell-based; details: 14-day fed batch
Text: A multi-hairpin amiRNA gene was designed to target both Cricetulus griseus GDP-Mannose 4,6-dehydratase (GMD), and GDP-fucose transporter 1 (GFT). […]
Multi-hairpin amiRNA sequence with SEQ ID NO: 200 was placed to the 3′ of an open reading frame encoding a red fluorescent protein (with nucleotide sequence SEQ ID NO: 279) and followed by a rabbit globin polyadenylation sequence. […]

[2] = test system: Homo sapiens GDP-Mannose 4,6-dehydratase (GMD) and GDP-fucose transporter 1 (GFT) mRNA; assay: Inhibition of antibody fucosylation in HEK cell pools, amiRNA directed toward GMD and GFT; type: cell-based; details: HEK pool
Text: A second multi-hairpin amiRNA gene was designed to target both Homo sapiens GDP-Mannose 4,6-dehydratase (GMD) with mRNA sequence given by SEQ ID NO: 8, and GDP-fucose transporter 1 (GFT) with mRNA sequence given by SEQ ID NO: 9. The multi-hairpin amiRNA, with nucleotide sequence SEQ ID NO: 204, comprised four hairpins; the first hairpin comprised guide strand sequence SEQ ID NO: 47 (complementary to the mRNA for human GMD, with sequence SEQ ID NO: 8), immediately followed by loop sequence SEQ ID NO: 241 and passenger strand sequence SEQ ID NO: 132; the second hairpin comprised guide strand sequence SEQ ID NO: 52 (complementary to the mRNA for human GFT, with sequence given by SEQ ID NO: 9), immediately followed by loop sequence SEQ ID NO: 241 and passenger strand sequence SEQ ID NO: 137; the third hairpin comprised guide strand sequence SEQ ID NO: 50 (complementary to the mRNA for human GFT, with sequence SEQ ID NO: 9), immediately followed by loop sequence SEQ ID NO: 241 and passenger strand sequence SEQ ID NO: 135 and the fourth hairpin comprised guide strand sequence SEQ ID NO: 49 (complementary to the mRNA for human GMD, with sequence given by SEQ ID NO: 8), immediately followed by loop sequence SEQ ID NO: 241 and passenger strand sequence SEQ ID NO: 134. Each passenger strand sequence was complementary to its corresponding guide strand sequence, except that the bases in the passenger strand sequences corresponding to the 5′ base of the guide strand and the twelfth base of the guide strand were changed to be non-complementary. The first and twelfth bases of guide strand with SEQ ID NO: 47 are T and G respectively, the corresponding bases in the corresponding passenger strand sequence SEQ ID NO: 132 are C and A respectively. […]
The multi-hairpin amiRNA sequences were placed to the 3′ of an open reading frame encoding a red fluorescent protein (with nucleotide sequence SEQ ID NO: 279) and followed by a rabbit globin polyadenylation sequence. […]

Molecule | G0 + G1 % (area) ([1]; afucosylated antibody heavy chain, CMV promoter) | G0F + G1F (% area) ([1]; fucosylated antibody heavy chain, BDL=below detection limit, listed as 200) | G0 + G1 % (area) ([2]; afucosylated antibody, 7-day transient culture) | Titer ([2]; antibody in culture supernatant, 7-day culture, listed as 204) | G0F + G1F (% area) ([2]; fucosylated antibody, 7-day transient culture, BDL=below detection limit, listed as 204)
SEQ ID NO: 200: four-hairpin amiRNA, two guides to Cricetulus griseus GMD mRNA (35, 36) and two to GFT mRNA (41, 42) (nucleic acid) ATCTGATCTTCTGAAGAAAATATATTTCTTTTTATTCATAGCTCTTAACTAGTGGTGATAGCAATGTCAGCAGTGCCTTTAAACTTCTTGATTTCCCAAAGTGAAGCCACAGATGTTTGGGAAATAAAGAAGTTTACAAGTAAGGTTGACCATACTCTACTCTAGTTATATTCTTTAGGCACGAATGTGTGTTTAAAAAAAATAAAAACTAGTGGTGATAGCAATGTCAGCAGTGCCTTCCTCTTAGATCATATTCCAAGGTGAAGCCACAGATGCTTGGAATATAATCTAAGAGGCAAGTAAGGTTGACCATACTCTACTCTAGAGTTGTGTTTTAATGTATATTAATGTTACTAATGTGTTTACTAGTGGTGATAGCAATGTCAGCAGTGCCTTTCAAGTAAAATGAGTATGTGAGTGAAGCCACAGATGTCACATACTCCTTTTACTTGACAAGTAAGGTTGACCATACTCTACTCTAGGTTATTTTTAGTATGATTCTGTAAAAATGAATTAATACTAACTAGTGGTGATAGCAATGTCAGCAGTGCCTTCAATTAGTGGGATCACAACCCGTGAAGCCACAGATGGGGTTGTGATACCACTAATTGCAAGTAAGGTTGACCATACTCTACTCTAGTCAGTTTTATTGATAGTCTTTTCAGTATTATTGATAATCTT | 100 % (area) | no fucose was detectable by mass spectroscopy and BDL | – | – | –
SEQ ID NO: 204: four-hairpin amiRNA, two guides to Homo sapiens GMD mRNA (47, 49) and two to GFT mRNA (52, 50) (nucleic acid) ATCTGATCTTCTGAAGAAAATATATTTCTTTTTATTCATAGCTCTTAACTAGTGGTGATAGCAATGTCAGCAGTGCCTTAAAACATCTTGATTTCACAAAGTGAAGCCACAGATGTTTGTGAAATAAAGATGTTTTCAAGTAAGGTTGACCATACTCTACTCTAGTTATATTCTTTAGGCACGAATGTGTGTTTAAAAAAAATAAAAACTAGTGGTGATAGCAATGTCAGCAGTGCCTTATTACTTGTAAACACTGGTTCGTGAAGCCACAGATGGAACCAGTGTCTACAAGTAATCAAGTAAGGTTGACCATACTCTACTCTAGAGTTGTGTTTTAATGTATATTAATGTTACTAATGTGTTTACTAGTGGTGATAGCAATGTCAGCAGTGCCTTTCACTACTGTGCTGGCCCCGCGTGAAGCCACAGATGGCGGGGCCAGAACAGTAGTGACAAGTAAGGTTGACCATACTCTACTCTAGGTTATTTTTAGTATGATTCTGTAAAAATGAATTAATACTAACTAGTGGTGATAGCAATGTCAGCAGTGCCTTTGTTGTGTAACAACATAATTTGTGAAGCCACAGATGAAATTATGTTATTACACAACACAAGTAAGGTTGACCATACTCTACTCTAGTCAGTTTTATTGATAGTCTTTTCAGTATTATTGATAATCTT | – | – | 100 % (area) | 126 mg/L and 120 mg/L | complete abolition of antibody fucosylation and BDL
